# Assay results published in publication PMC6436656.
# B1: final 27 aa of Gα12, G peptide of the hGPR35-Gα12 SPASM sensor, Q03113 G.H5.23 Ile to Leu (peptide)
# chain: DTENVRFVFHAVKDTILQENLKDLMLQ
# B2: final 27 aa of Gα12, G peptide of the hGPR35-Gα12 SPASM sensor, Q03113 G.H5.22 Asp to Gln (peptide)
# chain: DTENVRFVFHAVKDTILQENLKQIMLQ
# Target: human GPR35 (GPR35a splice variant), receptor part of the hGPR35 SPASM sensors, Q9HC97
# Test: BRET (hGPR35 SPASM sensor)
# Conditions: chain shown with the change, highest concentration, read off a plot
# [1] = bufrolin, 1e-6 M, parent: est. 1.1
# [2] = lodoxamide, 1e-6 M, parent: est. 1.1
# [3] = pamoic acid, about 10^-5.5 M, parent: est. 1.0
# [4] = zaprinast, 1e-4 M, parent: est. 1.1
# Sequence of human GPR35 (GPR35a splice variant), receptor part of the hGPR35 SPASM sensors, Q9HC97 (Q9HC97 whole entry, change not shown, canonical isoform): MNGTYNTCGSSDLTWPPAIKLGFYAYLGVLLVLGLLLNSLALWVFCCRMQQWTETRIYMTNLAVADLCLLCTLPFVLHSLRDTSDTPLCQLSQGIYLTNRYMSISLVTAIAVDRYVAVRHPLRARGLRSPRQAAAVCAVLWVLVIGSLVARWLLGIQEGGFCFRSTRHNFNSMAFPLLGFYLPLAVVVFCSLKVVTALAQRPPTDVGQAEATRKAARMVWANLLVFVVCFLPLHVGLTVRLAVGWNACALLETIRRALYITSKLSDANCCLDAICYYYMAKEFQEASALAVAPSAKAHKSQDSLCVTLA
response (BRET ratio (fold change)) [1],response (BRET ratio (fold change)) [2],response (BRET ratio (fold change)) [3],response (BRET ratio (fold change)) [4],Binder
1.4,1.4,1.1,1.4,B1
1.1,1.2,1.1,1.2,B2
